US20260258115A1 (MAPP BIOPHARMACEUTICAL, published 2026)
Residue numbers refer to the chain shown, from its start.

B1: ADI-14367 (antibody, V domains shown)
VH: EVQLLESGGGLVQPGGSLRLSCAASGFTFGSYDMNWVRQAPGKGLEWVSGISGSGDATYYADSVKGRFTISRDNSKNMLYLQMNSLSAEDMAVYYCARDRAFTMKYNSNWYKIYWGQGTMVTVSS
VL: EIVLTQSPGTLSLSPGERATLSCRASQSVTSSYLAWYQQKPGQAPRLLIYGAFSRATGIPDRFSGSGSGTDFTLTISRLEPEDFAVYYCHHYGTSRWTFGQGTKVDIK
notes: full-length IgG; also called Ab 35
B2: ADI-25555 (antibody, V domains shown)
VH: QVQLVQSGGGLVKPGGSLRLSCAASGFTFSSYSMNWVRQAPGKGLEWVSSISSSSSYIYYADSVKGRFTISRDNAKNSLYLQMNSLRAEDTAVYYCARQRGGIAVAGTYFDLWGRGTLVTVSS
VL: QPVLTQPPSVSGAPGQRVTISCTGSSSNIGAGYDVHWYQQLPGTAPKLLIYGNSNRPSGVPDRFSGSKSGTSASLAITGLQAEDEADYYCQSYDSTVVFGGGTKLTVL
notes: full-length IgG
B3: ADI-25562 (antibody, V domains shown)
VH: QVQLVESGGGLVKPGGSLRLSCAASGFTFSDYYMSWIRQAPGKGLEWVSYISSSSSYTNYADSVKGRFTISRDNAKNSLYLQMNSLRAEDTAVYYCARVGYSSSWYNYFDYWGQGTLVTVSS
VL: SYVLTQPPSVSGAPGQRVTISCTGSSSNIGAGYDVHWYQQLPGTAPKLLIYGNSNRPSGVPDRFSGSKSGTSASLAITGLQAEDEADYYCQSYDSSLSGPVFGGGTKLTVL
notes: full-length IgG; also called Ab 453
B4: ADI-19420 (antibody, V domains shown)
VH: EVQLLESGGGLVKPGGSLRLSCAASGFTFSSYSMNWVRQAPGKGLEWVSSISSSSSYIYYADSVKGRFTISRDNAKNSLYLQMNSLRAEDTAVYYCARVGWGYSYGYWFDPWGQGTLVTVSS
VL: B3 VL with S1Q, Y2S, P100V
notes: full-length IgG
B5: ADI-19421 (antibody, V domains shown)
VH: EVQLLESGGGVVQPGRSLRLSCAASGFTFSSYGMHWVRQAPGKGLEWVAVISYDGSNKYYADSVKGRFTISRDNSKNTLYLQMNSLRAEDTAVYYCAKDIHHVLRFLDPDYWGQGTLVTVSS
VL: QSVLIQPASVSGFPGQSITISCTGTSSDVGGYNYVSWYQQHPGKAPKLMIYEVSNRPSGVSNRFSGSKSGNTASLTISGLQAEDEADYYCSSYTSSSTLVFGGGTKLTVL
notes: full-length IgG
B6: ADI-25549 (antibody, V domains shown)
VH: QVQLVQSGGGLVKPGGSLRLSCAASGFTFSSYSMNWVRQAPGKGLEWVSSISSSSSYIYYADSVKGRFTISRDNAKNSLYLQMNSLRAEDTAVYYCARVSSGWYGGGAYYFDYWGQGTLVTVSS
VL: QSVVTQPPSVSGAPGQRVTISCTGSSSNIGAGYDVHWYQQLPGTAPKLLIYGNSNRPSGVPDRFSGSKSGTSASLAITGLQAEDEADYYCQSYDSSLSALYVFGTGTKVTVL
notes: full-length IgG
B7: ADI-19425 (antibody, V domains shown)
VH: EVQLVESGGGLVKPGGSLRLSCAASGFTFSSYSMNWVRQAPGKGLEWVSSISSSSSYIYYADSVKGRFTISRDNAKNSLYLQMNSLRAEDTAVYYCARLGYCSGGSCHFDYWGQGTLVTVSS
VL: B6 VL with S2P, V4L, A99G, L100F, V109L
notes: full-length IgG; also called Ab 140
B8: ADI-19422 (antibody, V domains shown)
VH: not shown
VL: QPVLTQPPSVSVAPGKTARITCGGNNIGSKSVHWYQQKPGQAPVLVVYDDSDRPSGIPERFSGSNSGNTATLTISRVEAGDEADYYCQVWDSSSDHWVFGGGTKLTVL
notes: full-length IgG
B9: ADI-19424 (antibody, V domains shown)
VH: EVQLLESGGGLVQPGGSLRLSCAASGFTVSSNYMSWVRQAPGKGLEWVSDIYSGGRTDYADSVKGRFTISRDNSKNTLDLQMNSLRAEDTAVYYCARETLGMDHWYFDLWGRGTLVTVSS
VL: B8 VL with V3G, S93T, W97P
notes: full-length IgG
B10: ADI-25567 (antibody, V domains shown)
VH: QVQLQQWGAGLLKPSETLSLTCAVYGGSFSGYYWSWIRQPPGKGLEWIGEINHSGSTNYNPSLKSRVTISVDTSKNQFSLKLSSVTAADTAVYYCARGLPRFGVVTPNWFDPWGQGTLVTVSS
VL: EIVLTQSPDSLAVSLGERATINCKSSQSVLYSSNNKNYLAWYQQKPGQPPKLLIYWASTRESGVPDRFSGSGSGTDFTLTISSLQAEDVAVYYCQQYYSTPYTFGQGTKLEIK
notes: full-length IgG
B11: ADI-41459 (antibody, V domains shown)
VH: QVQLVESGGGLVQPGGSLRLSCAASGFPFSAYGINWVRQAPGKGLEWVSYISSTSTTIKYADSVKGRFTISRDDAKNSLYLQLRSLRPEDTAVYYCAGGVWSGYYIDFWGQGTPVTVSS
VL: NFMLTQPQSVSESPGKTVTISCTRSSGSIGSNFVQWYQQRPGSSPTTVIYEDYQRPSGVPDRFSGSIDSSSNSASLTISGLKTEDEADYYCQSYDADMMVFGGGTKLTVL
notes: also called Ab 743; Antibody Number 743
B12: ADI-41455 (antibody, V domains shown)
VH: QVQLQESGPGLVKPSQTLSLTCSVSEGSVISGDYYWSWIRQSPGKGLEWLGYIHYSGSTYYNPSLKSRVTISVDTSKKQFSLKLSSVTAADTAVYYCARDLGCIGGVCSAYGLEHNYYFGMDVWGQGTTVTVSS
VL: EIVLTQSPATLSLSPGERATLSCRASQSVSSYLAWYQQKPGQAPRLLIYTASNRATGIPARFSGSGSGTDFTLTISSLEPEDFAVYYCQQRSSWPPYTFGQGTKLEIK
B13: ADI-41464 (antibody, V domains shown)
VH: QVQLVESGPGLVRPSGTLSLTCTVSGDSVNSYRWSWIRQSPGKGLEWIGYISYSGETNYNPSLKSRVSISVGTSRYQFFLKLSSVTAADTATYYCARDKTTIFGVSHYYFGVDVWGQGTTVTVSS
VL: DIVMTQTPLSLPVTPGEPASISCRSSQSLLKSDGYNSLDWYLQRPGQSPQLLIYLGSNRASGVPARFSGSGSGTDFTLKISRVEAEDVGVYYCMQALQTPFTFGPGTKVEIK
B14: ADI-41460 (antibody, V domains shown)
VH: QVTLKESGPALVKPTQTLTLTCTFSGFSLNTRGMCVSWVRQPPGKALEWLARIDWDDDKNYSTSLRTRLTISKDTSRNQVVLAMANMDPVDTATYYCARCARYDRSGYYVWYLDSWGQGTLVTVSS
VL: DIQMTQSPSSLSASVGDRVTITCRASQTIASYLNWYQQKPGKAPKLLIYVASTLQSGVPSRFSGSGSGTDFTLTISSLQPEDFATYYCQQSYSLTQWTFGQGTKVEIK
B15: ADI-41456 (antibody, V domains shown)
VH: EVQLLESGGGLFHPGGSLTLSCVASGFTLSTYYMHWVRQAPGKGLVWVARINSDGGYTTYADSVKGRFTVSRDNAKNTLYLQMNSLRVEDTAVYYCAREWVEFDSWGQGTLVTVSS
VL: NFMLTQPHSVSASPGKTVTISCTRSSGNIASNYVQWYQQRPGSSPTTVITEDNQRPSGVPDRFSGSIDSSSNSASLTISGLKTEDEADYYCQSYDSSTYVFGTGTKLTVL
notes: also called Ab 740; Antibody Number 740
B16: ADI-41461 (antibody, V domains shown)
VH: QVQLVQSGAEVKKPGASVKVSCRASGYTFSSYDINWVRQATGQGLEWMGWMSPNSANTGYAQKFQGRVTMTRDTSINTAYMELSSLSSEDTAVYYCARFLGYCSGGSCYPGYGMDVWGQGTTVTVSS
VL: EIVLTQSPDSLAVSLGERATINCKSSQNVLYSSNNKDYLSWYQQKPGQPPKLLIYWASTRESGVPDRFSGSGSGTDFTLTINSLQAEDVAVYYCQQYYGTPYTFGQGTKLEIK
B17: ADI-41550 (antibody, V domains shown)
VH: QVQLVQSGAEVKMPGASVRVSCKASGYTLGSHGITWVRQAPGQGLEWMGWISANNFNTHYAQKFQGRVTMTTDTSTSTAYMELRSLRSDDTAVYYCAREVMGHMVETISFDYWGQGTLVTVSS
VL: B8 VL with K16Q, K30E, Y48H, S92F, S93T, S94P, W97P, L105V
B18: ADI-41463 (antibody, V domains shown)
VH: QVQLVQSGAEVKKPGASVKVSCTASGYSFTDYDISWVRQAPGQGLEWMGWISAYNGNTNYAQKFQDRVTMNTDTSTNTAYMELRGLRSDDTAVYYCARNCYYGSGTCYIEDYYFDYWGQGTLVTVSS
VL: DIQMTQSPSSLSASVGDRVTITCRASQDIKNDLGWYQQKPGKPPKRLIYGASRSQSGVPSRFSGSGSGTDFTLTIYSLQPEDFATYYCLQHSDYPFTFGQGTRLEIK
notes: also called Ab 747; Antibody Number 747

Biological target: T1, RSV postfusion F (postF), subtype A (respiratory syncytial virus subtype A, UniProt P03420 26-513)
T1 construct: also called Postfusion subtype A; F deltaFP
Test: BLI

B1: no binding.
B2: no binding.
B3: no binding.
B4: no binding.
B5: no binding.
B6: no binding.
B7: no binding.
B8: no binding.
B9: no binding.
B10: no binding.

Biological target: T2, RSV prefusion F (preF), subtype B (respiratory syncytial virus subtype B)
T2 construct: also called Prefusion subtype B
Test: BLI, IgG

First: B1
Second: B2
The Kd of the first is 170-fold lower: 0.269 nM for the first, 44.7 nM for the second. The first binds more tightly here.

B3 and B4 are within 1.5-fold of each other in Kd: 3.32 nM for the first, 2.47 nM for the second.

Going from B5 to B6, the Kd rises from 5.42 nM to 28.8 nM (5.3-fold). The first binds more tightly here.

Going from B7 to B8, the Kd rises from 1.37 nM to 10.8 nM (7.9-fold). The first binds more tightly here.

Compared with B9, B10 is 2.2-fold higher in Kd: 1.71 nM for the first, 3.83 nM for the second. The first binds more tightly here.

Biological target: RSV F on RSV subtype A virus (mKate-RSV A2) (respiratory syncytial virus A2, UniProt P03420 26-574)
Test: cell-based or functional assay

Going from B1 to B2, the “Neut IC50 subtype A” value rises from 3.94 µg/mL to 18.6 µg/mL (4.7-fold).

Compared with B3, B4 is 2.1-fold lower in “Neut IC50 subtype A” value: 1.18 µg/mL for the first, 0.55 µg/mL for the second.

B5 and B6 are within 1.5-fold of each other in “Neut IC50 subtype A” value: 10 µg/mL for the first, 11.5 µg/mL for the second.

Going from B7 to B8, the “Neut IC50 subtype A” value rises from 0.02 µg/mL to 0.73 µg/mL (36-fold).

First: B9
Second: B10
The “Neut IC50 subtype A” value of the first is 4.1-fold lower: 0.08 µg/mL for the first, 0.33 µg/mL for the second.

Biological target: RSV F on RSV subtype B virus (mKate-RSV B 18537) (respiratory syncytial virus B 18537, UniProt P13843 26-574)
Test: cell-based or functional assay

Compared with B1, B2 is 37-fold higher in “Neut IC50 subtype B” value: 0.33 µg/mL for the first, 12.1 µg/mL for the second.

Going from B3 to B4, the “Neut IC50 subtype B” value falls from 1.14 µg/mL to 0.64 µg/mL (1.8-fold).

Compared with B5, B6 is 1.8-fold higher in “Neut IC50 subtype B” value: 3.3 µg/mL for the first, 6.02 µg/mL for the second.

First: B7
Second: B8
The “Neut IC50 subtype B” value of the first is 48-fold lower: 0.04 µg/mL for the first, 1.9 µg/mL for the second.

First: B9
Second: B10
The “Neut IC50 subtype B” value of the first is 9.2-fold lower: 0.21 µg/mL for the first, 1.94 µg/mL for the second.

Biological target: RSV F on RSV-A2 virus (Respiratory Syncytial Virus (RSV-A2), UniProt P03420 26-574)
Test: cell-based or functional assay

B11 and B12 cannot be ordered by “Neutralization IC50 (RSV subtype A)” value: > 25 µg/mL for the first, > 25 µg/mL for the second.

B13 and B14 cannot be ordered by “Neutralization IC50 (RSV subtype A)” value: > 25 µg/mL for the first, > 25 µg/mL for the second.

B15 and B16 cannot be ordered by “Neutralization IC50 (RSV subtype A)” value: > 25 µg/mL for the first, > 25 µg/mL for the second.

B17 and B18 cannot be ordered by “Neutralization IC50 (RSV subtype A)” value: > 25 µg/mL for the first, > 25 µg/mL for the second.

Biological target: RSV prefusion F (preF), DS-Cav1 (Respiratory Syncytial Virus, UniProt P03420 26-513)
Test: BLI, IgG on anti-human IgG sensor, 100 nM antigen, 1:1 fit

B11 and B12 are within 1.5-fold of each other in Kd: 1.89 nM for the first, 1.53 nM for the second.

Compared with B13, B14 is 1.6-fold lower in Kd: 1.91 nM for the first, 1.23 nM for the second. The second binds more tightly here.

Compared with B15, B16 is 1.6-fold higher in Kd: 1.48 nM for the first, 2.3 nM for the second. The first binds more tightly here.

B18 gave a Kd of 2.68 nM.

Biological target: RSV postfusion F (postF), F ΔFP (Respiratory Syncytial Virus, UniProt P03420 26-513)
Test: as above

First: B11
Second: B12
The Kd of the first is 1.9-fold lower: 0.343 nM for the first, 0.638 nM for the second.

Going from B13 to B14, the Kd rises from 0.313 nM to 0.632 nM (2-fold).

Going from B15 to B16, the Kd rises from 0.267 nM to 0.548 nM (2.1-fold). The first binds more tightly here.

First: B17
Second: B18
The Kd of the first is 53-fold higher: 25.7 nM for the first, 0.485 nM for the second.
